Earlier results in publication PMC4872106.
pKd: −log10 of the molar value.

Target: M.EcoKI (Escherichia coli) (UniProt P08957)
Conditions: cited from earlier work

Ocr, sequence (P03775 whole entry): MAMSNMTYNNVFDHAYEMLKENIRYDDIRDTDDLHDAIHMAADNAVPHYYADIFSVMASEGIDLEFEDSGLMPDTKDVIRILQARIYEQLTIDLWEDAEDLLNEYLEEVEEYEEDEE
M.EcoKI (Escherichia coli), sequence (P08957 whole entry, chain 1 of 2): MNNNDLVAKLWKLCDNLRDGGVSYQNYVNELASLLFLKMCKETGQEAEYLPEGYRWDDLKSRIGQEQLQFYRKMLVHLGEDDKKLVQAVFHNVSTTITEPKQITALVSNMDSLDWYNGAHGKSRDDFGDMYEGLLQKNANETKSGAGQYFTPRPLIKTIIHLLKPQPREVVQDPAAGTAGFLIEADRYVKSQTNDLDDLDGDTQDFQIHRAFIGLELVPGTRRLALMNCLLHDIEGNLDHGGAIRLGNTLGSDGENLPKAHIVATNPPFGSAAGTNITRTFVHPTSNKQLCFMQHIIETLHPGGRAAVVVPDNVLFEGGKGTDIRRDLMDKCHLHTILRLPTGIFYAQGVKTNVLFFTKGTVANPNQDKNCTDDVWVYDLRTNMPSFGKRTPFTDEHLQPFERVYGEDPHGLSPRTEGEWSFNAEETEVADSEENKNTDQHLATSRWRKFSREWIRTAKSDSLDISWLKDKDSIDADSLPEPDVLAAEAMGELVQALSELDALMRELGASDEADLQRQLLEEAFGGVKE
M.EcoKI (Escherichia coli), sequence (P05719 2-464, chain 2 of 2, further chain): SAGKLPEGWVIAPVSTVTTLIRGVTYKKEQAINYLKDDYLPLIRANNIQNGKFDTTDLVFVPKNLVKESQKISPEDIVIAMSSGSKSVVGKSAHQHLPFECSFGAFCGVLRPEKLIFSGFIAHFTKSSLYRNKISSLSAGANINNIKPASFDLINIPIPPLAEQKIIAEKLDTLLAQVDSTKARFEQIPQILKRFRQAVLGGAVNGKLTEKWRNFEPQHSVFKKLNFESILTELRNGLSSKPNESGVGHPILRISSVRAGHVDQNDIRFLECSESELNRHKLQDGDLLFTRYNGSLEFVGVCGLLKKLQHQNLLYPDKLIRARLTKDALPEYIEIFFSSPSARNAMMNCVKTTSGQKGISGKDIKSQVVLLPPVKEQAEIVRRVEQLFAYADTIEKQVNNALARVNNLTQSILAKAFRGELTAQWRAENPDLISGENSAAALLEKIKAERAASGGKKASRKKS

Question: With Ocr (from UniProt P03775) as the substance, how does the pKd read?
Answer: 10.30
